In patent US20050244406A1 (G2 THERAPIES, published 2005):

What was measured:
human C5aR [1] = biological target: T1, human C5aR (human, UniProt P21730 1-350); assay: cell-based or functional assay
T1 chain: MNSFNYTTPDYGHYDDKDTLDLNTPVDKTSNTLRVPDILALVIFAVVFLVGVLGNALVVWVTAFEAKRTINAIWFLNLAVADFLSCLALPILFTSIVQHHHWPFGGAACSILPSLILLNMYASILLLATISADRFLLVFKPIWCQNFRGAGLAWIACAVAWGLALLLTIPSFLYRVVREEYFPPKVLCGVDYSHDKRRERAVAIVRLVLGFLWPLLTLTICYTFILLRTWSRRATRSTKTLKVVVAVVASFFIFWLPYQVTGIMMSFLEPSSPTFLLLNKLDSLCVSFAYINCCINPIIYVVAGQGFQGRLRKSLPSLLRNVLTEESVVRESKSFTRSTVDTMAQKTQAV

[2] = biological target: T2, C5aR N-terminal peptide (residues 9-29), PEPI (human); assay: ELISA, PEPI coated at 1 µg/ml
T2 construct: Synthetic peptide (Biosource), residues 9-29 of C5aR; also called C5aR N-terminal peptide 9-29
T2 peptide: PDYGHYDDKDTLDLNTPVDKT
Experimental: ELISAs were performed as described in Current Protocols in Immunology (Unit 2.1) (Edited by J. F. Coligan, A. M. Kruisbeek, D. B. Margulies, E. M. Shevach and W. Strober), John Wiley and Sons, New York. Briefly, 96-well flat bottom ELISA plates (Maxisorp; Nunc) were coated with 1 μg/ml protein (PEPI or OPG) in PBS at 37° C. for 1 hr, then blocked with BSA at 4° C. overnight. The plates were then washed, incubated with antibodies, washed and incubated with peroxidase-conjugated sheep anti-mouse IgG antibody. The substrate used was TMB substrate reagent (PharMingen).
ELISA assays were performed as described above to measure the reactivity of MAbs 6C12, 12D4, 7F3, with PEPI and OPG. OPG is a member of the TNF-receptor superfamily which binds specifically to its ligand TNFSF11/OPGL. More specifically, OPG is an osteoblast-secreted decoy receptor that functions as a negative regulator of bone resorption.
MAbs 6C12, 12D4 and 7F3 were used in the ELISA as purified proteins at a concentration of 1 μg/mL. MAb 9C1 (which is specific for OPG) and MAb 11B9 (which recognises PEPI) were used as positive controls. These control MAbs were used in the form of undiluted tissue culture supernatant.

CX3CR1 (V28) = biological target: T3, CX3CR1 (V28) (UniProt P49238 1-355, limits assumed); assay: flow cytometry on transfected L1.2 cells
T3 construct: whole, on cells; also called L1.2 V28
T3 sequence (looked up): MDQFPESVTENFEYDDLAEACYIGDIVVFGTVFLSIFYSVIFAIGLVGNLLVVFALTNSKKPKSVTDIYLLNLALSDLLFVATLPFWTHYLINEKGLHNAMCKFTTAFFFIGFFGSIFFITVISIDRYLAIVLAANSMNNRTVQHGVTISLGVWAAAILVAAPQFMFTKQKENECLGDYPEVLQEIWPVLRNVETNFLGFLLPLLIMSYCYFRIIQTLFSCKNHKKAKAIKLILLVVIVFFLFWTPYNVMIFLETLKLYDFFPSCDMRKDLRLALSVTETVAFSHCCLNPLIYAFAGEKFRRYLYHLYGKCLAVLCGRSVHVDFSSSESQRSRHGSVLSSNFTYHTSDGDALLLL

CXCR2 = biological target: T4, CXCR2 (UniProt P25025 1-360, limits assumed); assay: flow cytometry on transfected L1.2 cells
T4 construct: whole, on cells; also called L1.2CXCR2
T4 sequence (looked up): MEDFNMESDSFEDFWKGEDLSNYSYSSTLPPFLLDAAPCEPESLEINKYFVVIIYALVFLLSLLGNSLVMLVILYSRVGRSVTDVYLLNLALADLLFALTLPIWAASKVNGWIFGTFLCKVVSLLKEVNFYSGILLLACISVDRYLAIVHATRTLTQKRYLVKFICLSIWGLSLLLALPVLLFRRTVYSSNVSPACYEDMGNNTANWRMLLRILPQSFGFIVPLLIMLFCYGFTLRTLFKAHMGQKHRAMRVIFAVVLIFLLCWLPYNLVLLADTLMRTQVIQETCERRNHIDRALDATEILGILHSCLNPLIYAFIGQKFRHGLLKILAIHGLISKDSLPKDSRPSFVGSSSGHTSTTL

human C5aR [3] = biological target: T1, human C5aR; assay: flow cytometry on L1.2 cells with human C5aR, MAb 50 ug/ml, with PEPI 1-100 µM
Experimental: Anti-C5aR MAbs were added at 50 ug/ml, to a C5aR N-terminal synthetically produced peptide (residues 9-29) known as “PEPI” (Biosource; Eldridge) at concentrations ranging from 1 to 100 μM. Mouse L1.2 cells transfected with human C5a receptor and resuspended in 1% bovine serine albumin (BSA; GibcoBRL) (1×10^7/ml) were then added to give a total volume of 100 μl. The cells were incubated for 30 min at 4° C. and washed once with 0.1% BSA. Fluorescein (FITC) conjugated, sheep anti-mouse IgG, F(ab′)2 (Jackson Immunoresearch Laboratories Inc.) was used as a secondary Ab (1:200) and incubated for 15 min at 4° C., followed by an additional washing step with 0.1% BSA The cells were resuspended in 0.1% BSA and analysed by flow cytometry.

human C5aR [4] = biological target: T1, human C5aR; assay: flow cytometry on L1.2 C5aR transfectants

B1: MAb 7F3 (antibody, V domains shown)
VH: QVQLQQSGPELVKPGASVKISCKASGYAFSNSWMNWVKQRPGKGLEWIGRIYPGDGDTKYNGKFKGKATLTADKSSSTAYMQLSSLTSEDSAVYFCARFLLISTVTAVDYWGQGTTLTVSS
VL: DVVMTQSPLSLPVSLGNQASISCRSSQSLVHSNGNTYLHWYLQKPGQSPKLLIYKVSNRFSGVPDRFSGSGSGTDFSLKISRVEAEDLGVYFCSQSTLVPLTFGAGTKLELK
notes: Murine monoclonal antibody from hybridoma ECACC 00110609; also called monoclonal antibody 7F3
B1 was tested, and the “neutrophil migration towards C5a” value (human C5aR [1]) was 140 fold reduction, the binding result [2] was “no binding (tested: 1 µg/mL)” and the binding result (CX3CR1 (V28)) was “no binding”. B1: no binding (CXCR2).

B2: MAb 6C12 (antibody, IgG3, V domains shown)
VH: QVQLQQSGPEVVKPGASVKISCKASGYAFSRSWMNWVKQRPGKGLEWIGRIDAGDGDTKYNGKFKGKATLTADKSSSTAYMQLSSLTSEDSAVYFCASLLITTVVGAMDYWGQGTSVTVSS
VL: DVVMTQIPLSLPVSLGDQTSISCRSSQSLIHSNGNTYLHWYLQKPGQSPKLLIYKVSNRFSGVPDRFSGSGSGTDFTLKISRVEAEDMGVYFCSQSTHVPPTFGGGTKLEIK
notes: Murine monoclonal antibody from hybridoma ECACC 02090226; also called 6C12 M12
B2: no binding (tested: 1 µg/mL) [2]; no binding (CX3CR1 (V28)); no binding (CXCR2). B2: binds (human C5aR [3]).

B3: MAb 12D4 (antibody, IgG3, V domains shown)
VH: QVQLKESGPGLVAPSQSLSITCTVSGFSLTSYGVDWVRQSPGKGLEWLGVIWGVGSTNYNSALKSRLSISKDNSKSQVFLKMNSLQTDDAAMYYCASHYGYDGLGFAYWGQGTLVTVSV
VL: DVVMTQTPLSLPVSLGDQASISCRSSQSLVHSSGNTYLHWYLQKPGQSPKLLIYKVSNRFSGVPDRFSGSGSGTHFTLKISRVEAEDLGIYFCSQSTLVPPTFGGGTKLEIK
notes: Murine monoclonal antibody from hybridoma ECACC 02090227; also called 12D4-P9
B3: no binding (tested: 1 µg/mL) [2]; no binding (CX3CR1 (V28)); no binding (CXCR2). B3: binds (human C5aR [4]).
